System: coxsackievirus B3 (CVB3-GFP)
Type: cell-based
Details: HeLa cells, replicate R1; for Percent Infected R1: GFP-positive cells within RFP-positive gate

B1: RI NG1: human RING type E3 ligase expressed from lentiviral vector (protein, UniProt Q06587 1-406, looked up)
E3 ubiquitin-protein ligase …: MTTPANAQNASKTWELSLYELHRTPQEAIMDGTEIAVSPRSLHSELMCPICLDMLKNTMTTKECLHRFCSDCIVTALRSGNKECPTCRKKLVSKRSLRPDPNFDALISKIYPSREEYEAHQDRVLIRLSRLHNQQALSSSIEEGLRMQAMHRAQRVRRPIPGSDQTTTMSGGEGEPGEGEGDGEDVSSDSAPDSAPGPAPKRPRGGGAGGSSVGTGGGGTGGVGGGAGSEDSGDRGGTLGGGTLGPPSPPGAPSPPEPGGEIELVFRPHPLLVEKGEYCQTRYVKTTGNATVDHLSKYLALRIALERRQQQEAGEPGGPGGGASDTGGPDGCGGEGGGAGGGDGPEEPALPSLEGVSEKQYTIYIAPGGGAFTTLNGSLTLELVNEKFWKVSRPLELCYAPTKDPK
Percent Infected R1: 92.9% | Z score R1: 0.05

B2: RNF121: human RING type E3 ligase expressed from lentiviral vector (protein, UniProt Q9H920 2-327, looked up)
E3 ubiquitin ligase RNF121: AAVVEVEVGGGAAGERELDEVDMSDLSPEEQWRVEHARMHAKHRGHEAMHAEMVLILIATLVVAQLLLVQWKQRHPRSYNMVTLFQMWVVPLYFTVKLHWWRFLVIWILFSAVTAFVTFRATRKPLVQTTPRLVYKWFLLIYKISYATGIVGYMAVMFTLFGLNLLFKIKPEDAMDFGISLLFYGLYYGVLERDFAEMCADYMASTIGFYSESGMPTKHLSDSVCAVCGQQIFVDVSEEGIIENTYRLSCNHVFHEFCIRGWCIVGKKQTCPYCKEKVDLKRMFSNPWERPHVMYGQLLDWLRYLVAWQPVIIGVVQGINYILGLE
Percent Infected R1: 84.1% | Z score R1: −0.06

B3: RNF14: human RING type E3 ligase expressed from lentiviral vector (protein, UniProt Q9UBS8 1-474, looked up)
E3 ubiquitin-protein ligase …: MSSEDREAQEDELLALASIYDGDEFRKAESVQGGETRIYLDLPQNFKIFVSGNSNECLQNSGFEYTICFLPPLVLNFELPPDYPSSSPPSFTLSGKWLSPTQLSALCKHLDNLWEEHRGSVVLFAWMQFLKEETLAYLNIVSPFELKIGSQKKVQRRTAQASPNTELDFGGAAGSDVDQEEIVDERAVQDVESLSNLIQEILDFDQAQQIKCFNSKLFLCSICFCEKLGSECMYFLECRHVYCKACLKDYFEIQIRDGQVQCLNCPEPKCPSVATPGQVKELVEAELFARYDRLLLQSSLDLMADVVYCPRPCCQLPVMQEPGCTMGICSSCNFAFCTLCRLTYHGVSPCKVTAEKLMDLRNEYLQADEANKRLLDQRYGKRVIQKALEEMESKEWLEKNSKSCPCCGTPIEKLDGCNKMTCTGCMQYFCWICMGSLSRANPYKHFNDPGSPCFNRLFYAVDVDDDIWEDEVED
modifications: lentiviral expression
notes: human RING type E3 ligase expressed from lentiviral vector
Percent Infected R1: 95.5% | Z score R1: 0.09

B4: RNF8: human RING type E3 ligase expressed from lentiviral vector (protein, UniProt O76064 1-485, looked up)
E3 ubiquitin-protein ligase …: MGEPGFFVTGDRAGGRSWCLRRVGMSAGWLLLEDGCEVTVGRGFGVTYQLVSKICPLMISRNHCVLKQNPEGQWTIMDNKSLNGVWLNRARLEPLRVYSIHQGDYIQLGVPLENKENAEYEYEVTEEDWETIYPCLSPKNDQMIEKNKELRTKRKFSLDELAGPGAEGPSNLKSKINKVSCESGQPVKSQGKGEVASTPSDNLDPKLTALEPSKTTGAPIYPGFPKVTEVHHEQKASNSSASQRSLQMFKVTMSRILRLKIQMQEKHEAVMNVKKQTQKGNSKKVVQMEQELQDLQSQLCAEQAQQQARVEQLEKTFQEEEQHLQGLEIAQGEKDLKQQLAQALQEHWALMEELNRSKKDFEAIIQAKNKELEQTKEEKEKMQAQKEEVLSHMNDVLENELQCIICSEYFIEAVTLNCAHSFCSYCINEWMKRKIECPICRKDIKSKTYSLVLDNCINKMVNNLSSEVKERRIVLIRERKAKRLF
modifications: lentiviral expression
notes: as for B3
Percent Infected R1: 82.8% | Z score R1: −0.07

B5: MARCH2: human RING type E3 ligase expressed from lentiviral vector (protein, UniProt Q9P0N8 1-246, looked up)
E3 ubiquitin-protein ligase …: MTTGDCCHLPGSLCDCSGSPAFSKVVEATGLGPPQYVAQVTSRDGRLLSTVIRALDTPSDGPFCRICHEGANGECLLSPCGCTGTLGAVHKSCLEKWLSSSNTSYCELCHTEFAVEKRPRPLTEWLKDPGPRTEKRTLCCDMVCFLFITPLAAISGWLCLRGAQDHLRLHSQLEAVGLIALTIALFTIYVLWTLVSFRYHCQLYSEWRKTNQKVRLKIREADSPEGPQHSPLAAGLLKKVAEETPV
Percent Infected R1: 92.4% | Z score R1: 0.05

B6: RNF144A: human RING type E3 ligase expressed from lentiviral vector (protein, UniProt P50876 1-292, looked up)
E3 ubiquitin-protein ligase …: MTTTRYRPTWDLALDPLVSCKLCLGEYPVEQMTTIAQCQCIFCTLCLKQYVELLIKEGLETAISCPDAACPKQGHLQENEIECMVAAEIMQRYKKLQFEREVLFDPCRTWCPASTCQAVCQLQDVGLQTPQPVQCKACRMEFCSTCKASWHPGQGCPETMPITFLPGETSAAFKMEEDDAPIKRCPKCKVYIERDEGCAQMMCKNCKHAFCWYCLESLDDDFLLIHYDKGPCRNKLGHSRASVIWHRTQVVGIFAGFGLLLLVASPFLLLATPFVLCCKCKCSKGDDDPLPT
Percent Infected R1: 97.7% | Z score R1: 0.12

B7: RNF150: human RING type E3 ligase expressed from lentiviral vector (protein, UniProt Q9ULK6 35-438, looked up)
RING finger protein 150: EKEEWYTAFVNITYAEPAPDPGAGAAGGGGAELHTEKTECGRYGEHSPKQDARGEVVMASSAHDRLACDPNTKFAAPTRGKNWIALIPKGNCTYRDKIRNAFLQNASAVVIFNVGSNTNETITMPHAGVEDIVAIMIPEPKGKEIVSLLERNITVTMYITIGTRNLQKYVSRTSVVFVSISFIVLMIISLAWLVFYYIQRFRYANARDRNQRRLGDAAKKAISKLQIRTIKKGDKETESDFDNCAVCIEGYKPNDVVRILPCRHLFHKSCVDPWLLDHRTCPMCKMNILKALGIPPNADCMDDLPTDFEGSLGGPPTNQITGASDTTVNESSVTLDPAVRTVGALQVVQDTDPIPQEGDVIFTTNSEQEPAVSSDSDISLIMAMEVGLSDVELSTDQDCEEVKS
Percent Infected R1: 91.1% | Z score R1: 0.03

B8: RFPL2: human RING type E3 ligase expressed from lentiviral vector (protein, UniProt O75678 1-378, looked up)
Ret finger protein-like 2: MEVAELGFPETAVSQSRICLCAVLCGHWDFADMMVIRSLSLIRLEGVEGRDPVGGGNLTNKRPSCAPSPQDLSAQWKQLEDRGASSRRVDMAALFQEASSCPVCSDYLEKPMSLECGCAVCLKCINSLQKEPHGEDLLCCCSSMVSRKNKIRRNRQLERLASHIKELEPKLKKILQMNPRMRKFQVDMTLDANTANNFLLISDDLRSVRSGRIRQNRQDLAERFDVSVCILGSPRFTCGRHCWEVDVGTSTEWDLGVCRESVHRKGRIQLTTELGFWTVSLRDGGRLSATTVPLTFLFVDRKLQRVGIFLDMGMQNVSFFDAESGSHVYTFRSVSAEEPLRPFLAPSVPPNGDQGVLSICPLMNSGTTDAPVRPGEAK
modifications: lentiviral expression
notes: as for B3
Percent Infected R1: 93.8% | Z score R1: 0.07

— patent publication US12104181B2, “Compositions and methods for treating viral infections targeting TRIM7” (THE BOARD OF REGENTS OF THE UNIVERSITY OF TEXAS SYSTEM, priority 2021, dated 2024)
